Reference: PMC10693965

Substrate: C[N+](C)(C)CCO
Experiment: cells, lysate or membranes
Format: cell-based, Clonorchis sinensis
Conditions: ND96 (96 mM Na+), pH 7.4, 22–25°C, sodium-dependent, labelled compound

B1: CsChT (Clonorchis sinensis) (protein)
chain: MLYIPGLIAIIIFYLLILLVGFWAARKSRSNPAGTTETEDVMLAGRNIGLIVGIFTMTATWVGGGYINGTAENTFRPGQGLVWCQAPIGYAASLVLGGFFFAKRMRSLAFVTMLDPFQNKYGERMCGLLFIPALLGETFWSAAILSALGATLGVIVELDHTTSVIISACIALLYTLFGGLYSVAYTDVVQLFCIFVGLWISLPFALLNKATVPISQTWDRWKGSVEAVDAGIYVDNLLMLTFGGIPWQVYFQRVLSCRTAKQAQILSFVAAIGCLIMALPSVLIGAVGASTDWNMTGYGRAENFTIPDGEAKLVLPLVLRYLCPVWVSFVGLGAVSAAVMSSSDSSVLSAASMFARNVVKPVFWQSATERQIIWVMRASIFGVGALSCLLAICIQSIYGLWYLCSDLIYVILFPQLICVLYVRFSNTYGSLIGYILGLFVRLTSGEALLGLPALFKYPYFYDDPQDFYQRFPCKTFAMLCTLVVTIVVSYFTDLYFRKDSKRLKYDFFHCYKQRASASGSIHIGNRFNRPSIRTAKLPIQVPEVDSENADVDENSNKNSNTLDNNKPLA
Km: 8.3 µM
